Assay [1] concerns the target T1, CD123-Fc recombinant protein (human, UniProt P26951 19-305).
T1 construct: construct not described; not shown: Fc part
T1 sequence (looked up): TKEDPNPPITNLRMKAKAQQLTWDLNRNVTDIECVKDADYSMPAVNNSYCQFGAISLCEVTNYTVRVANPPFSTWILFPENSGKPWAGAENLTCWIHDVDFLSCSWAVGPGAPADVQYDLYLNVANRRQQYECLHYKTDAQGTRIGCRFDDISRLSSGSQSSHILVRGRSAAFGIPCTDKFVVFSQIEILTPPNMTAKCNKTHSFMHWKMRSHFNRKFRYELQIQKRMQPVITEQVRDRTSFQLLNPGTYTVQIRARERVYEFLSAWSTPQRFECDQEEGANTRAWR
In words: flow cytometry of T cells electroporated with CAR mRNA, stained with CD123-Fc + PE-anti-hIgG-Fc; Mock 0.36. As for the experimental part: The CD123 CAR mRNAs obtained in Example 35 above were each introduced into T cells by electroporation according to the following procedures: T cells were collected, washed with the Opti-MEM medium, and resuspended at 1×10e⁷/mL with the Opti-MEM medium; 10 μg of RNA and 100 μL of T cells were aliquoted, mixed well, and electroporated under the following parameters (BTX machine): 500 V, 0.7 ms; the cells were then transferred to a pre-warmed medium and cultured at 37° C. The binding of CD123 CART cells to the CD123-Fc recombinant protein was detected by FACS staining. […] Empty vector (Mock) was a control T cell without CAR molecule. A549 tumor cells were electroporated with different amounts of CD123 mRNA. The electroporation procedure was the same as described above, and only the parameters were changed, with the parameters 300 V, 0.5 ms used. CD123 expression in A549 tumor cells was detected by FACS staining of isotype or anti-CD123 antibodies and A549 cells electroporated with different amounts of CD123 mRNA. […] The cytotoxicity of CD123 CART cells against tumor cells was detected in an in vitro cytotoxicity assay. Tumor cells expressing EGFP or EGFP-A549 cells electroporated with different amounts of tumor antigen were seeded at 3000 cells/100 μL/well into a flat-bottom 96-well plate; CART cells were diluted to a proper concentration and seeded to the 100 μL/well tumor cells according to different E/T ratios (e.g., 10:1, 3:1, or 1:1), and the co-culture plate was placed into the IncuCyte S3 machine and scanning parameters were set. After scanning for 3 days, the total green object integrated intensity (GCU×μm²/well) was analyzed to calculate the killing efficiency.
(In general: In flow cytometry, cells or beads pass a laser one at a time.)

Assay [2] has as its target T2, recombinant Human/Cynomolgus CD28 (N-6His) (Human/Cynomolgus, UniProt P10747 19-152).
T2 construct: Bought protein; also called antigen CD28; not shown: 6His tag at the N-terminus (N-6His)
In words: ELISA; plate coated with CD28 (N-6His) 2 µg/mL; HRP-anti-hFc. As for the experimental part:
The binding activity of the humanized antibody to the antigen CD28 was detected by the ELISA method. The experimental procedures were as follows: [0525] 1. 30 μL of recombinant Human/Cynomolgus CD28 (N-6His) (Suzhou Novoprotein Scientific Inc., C406) at a concentration of 2 μg/mL was added to each well of an ELISA plate, and the plate was incubated at 4° C. overnight. [0526] 2. The next day, the ELISA plate was washed 3 times with PBST (containing 0.05% Tween-20). [0527] 3. 250 μL of 5% skim milk powder (dissolved in PBS) was added to each well of the ELISA plate, and the plate was incubated at room temperature for 2 h. [0528] 4. The plate was washed 3 times with PBST, antibodies with different dilution ratios were added to the ELISA plate at 30 μL/well, and the plate was incubated at room temperature for 60 min. [0529] 5. The plate was washed 3 times with PBST, 30 μL of HRP-anti-hFc antibody was added to each well, and the plate was incubated at room temperature for 60 min. [0530] 6. The plate was washed 3 times with PBST, 30 μL of TMB was added to each well, and after color development at room temperature, 30 μL of 2 M H₂SO₄ was added to each well to stop the reaction. The plate was read at 450 nm.
(In general: ELISA stands for enzyme-linked immunosorbent assay.)

Assay [3] addresses T3, CD28 (detection antigen of the BLI assay) (human, UniProt P10747 19-152, limits assumed).
T3 construct: also called the antigen
In words: BLI (GATOR); antibody loaded at 30 nM, antigen 300-37.5 nM. An excerpt:
The affinity kinetics of the humanized antibodies were detected using biolayer interferometry (BLI). The experimental procedures were as follows: [0533] 1. GATOR instrument was run, and the Kinetics experimental mode was selected. [0534] 2. The analysis program was run according to Table 5

Numbering of substitutions follows the chain as printed.

B1: anti-CD123 scFv-C26 (scFv)
scFv: QSVLTQPPSASGTPGQRVTISCSGSRSNIGSNTVSWYQQFPGTAPKLLIYLNNQRPSGVPDRFSGSKSGTSASLAISGLQSEDEAEYYCATWDDDLNGVFGGGTKLTVLGGGGSGGGGSGGGGSEVQLVESGGGLVQPGGSLRLSCAASGFTLSNFEMNWVRQAPGRGLEWVSYISATTSATSYADSVKGRFTISRDNAKNSLYLQMNSLRAEDTAVYYCARVRDGYNFGYYYYYMDVWGKGTTVTVSS
notes: On mRNA-electroporated T cells as CAR
Take B1: the “percent of cells in the CD123-Fc positive gate” value (from here on “percent of cells”) in assay [1] worked out at 73.4%.

B2: anti-CD123 scFv-C34 (scFv)
scFv: QSALTQPPSASGSPGQSVTISCTGTRSDVGAYNYVSWYQHHPGKAPKLMLYDVSKRPSGVSDRFSGSKSGNTASLTVSGLQSEDEANYYCSSYAGSGKYVFGSGTELTVLGGGGSGGGGSGGGGSEVHLVESGGGLVKPGGSLRLSCAASGFTFSDTWMSWVRQAPGKGLEWVGRIKSKTDGGTTNYAAPVKGRFTISRDDSKTTLFLQMNSLKTEDTAVYYCTGGDYPLFAYWGQGALVTVSS
notes: as for B1
On to B2, for which the “percent of cells” value in assay [1] worked out at 90.3%.

B3: anti-CD123 scFv-C30 (scFv)
scFv: AIRLTQSPSSLSASVGDRVTITCQASQNINNYLNWYQQKSGKAPKLLIYDASNLEAGVPSRFSGSASGTDFTFTISSLQPEDIATYYCQQNDNLPLTFGQGTRLEIKGGGGSGGGGSGGGGSEVQLVESGGGVVRPGGSLRLSCAASGFTFGDYGMSWVRQAPGKGLEWVSGINWNGGSTGYADSVKGRFTISRDNAKNSLYLQMNSLRAEDTALYYCARDRAPDYGDYLQVGTTDYWGQGTLVTVSS
notes: as for B1
Regarding B3, the “percent of cells” value in assay [1] was determined as 80.7%.

B4: anti-CD123 scFv-C29 (scFv)
scFv: QPVLTQPPSASGTPGQRVTISCSGSSSNIGSNYVYWYQQLPGTAPKLLIYRNNQRPSGVPDRFSGSKSGTSASLAISGLRSEDEADYYCAAWDDSLSGYVFGTGTKVTVLGGGGSGGGGSGGGGSEVHLVESGGGLVQPGRSLRLSCTASGFTFGDYAMSWVRQAPGKGLEWVGFIRSKAYGGTTEYAASVKGRFTISRDDSKSIAYLQMNSLKTEDTAVYYCTRDIGYYGSGSYSPFDYWGQGTLVTVSS
notes: as for B1
For the molecule B4, the “percent of cells” value in assay [1] worked out at 21.6%.

B5: anti-CD123 scFv-C23 (scFv)
scFv: DILMTQSPSSLSASVGDRVTITCQASQDISNYLNWYQQKPGKAPKLLIYDASNLETGVPSRFSGSGSGTGFSFTISSLQPEDFATYYCQQYGNLPLTFGGGTKLEIKGGGGSGGGGSGGGGSQVQLVQSGAEVKKPGASVKVSCKASGYTFTSYGISWVRQAPGQGLEWMGWISAYNGNTNYAQKLQGRVTMTTDTSTSTAYMELRSLRSDDTAVYYCARDRIAAAEVYYYYGMDVWGQGTTVTVSS
notes: as for B1
B5: the “percent of cells” value in assay [1] is 81.8%.

B6: anti-CD123 scFv-C21 (scFv)
scFv: QSVLTQPPSASGTPGQRVTISCSGSSSNVGGNPVYWYRQVPTAAPKLLVYGHNQRPPRDPDRFSGSKSGTSASLAISGLRSEDEADYYCAAWDDSLSGWVFGGGTELTVLGGGGSGGGGSGGGGSEVQLVESGGGLVQPGRSLRLSCAASGFTFDDYAMHWVRQAPGKGLEWVSGISWNSGSIGYADSVKGRFTISRDNAKNSLYLQMNSLRAEDTALYYCAKGRYVDIVATINDAFDIWGQGTMVTVSS
notes: as for B1
As for B6, in assay [1], the “percent of cells” value came to 78.6%.

B7: anti-CD123 scFv-C33 (scFv)
scFv: DIRLTQSPSSLSASVGDTITITCRASQDISSWIAWYQQKPGTAPRLLIYAASSLQSGVPSRFSGSGSGTDFTLTINSLHPEDFATYYCQQGSTFPLAFGGGTKVEIKGGGGSGGGGSGGGGSQVQLVQSGAEVKKPGSSVKVSCKASGGTFSSYAISWVRQAPGQGLEWMGGIIPIFGTANYAQKFQGRVTITADESTSTAYMELSSLRSEDTAVYYCARGLDNWNDVGWFDPWGQGTLVTVSS
notes: as for B1
For B7, in assay [1], the “percent of cells” value came to 58.5%.

B8: anti-CD123 scFv-C32 (scFv)
scFv: QSVVTQPPSASGTPGQRVTISCSGSSSNIEGNTVSWYQQFPGAAPKLLIYSNSYRASGVPDRFSGSKSGTSASLAISELQSEDEADYYCSAWDDSLNGPVFGGGTKVTVLGGGGSGGGGSGGGGSEVQLVESGGGLVQPGGSLRLSCAASGFTFTSYAMNWVRQAPGKGLEWVSDISSSSSYIYYADSVKGRFTISRDNAKNSLYLQMNSLRAEDTAVYYCARDLYSGYDYGYYYGMDVWGQGTTVTVSS
notes: as for B1
B8: the “percent of cells” value in assay [1] is 72.1%.

B9: anti-CD123 scFv-C27 (scFv)
scFv: EIVLTQSPGTVSLSPGERATLSCRASQRVSATYLAWYQQKPGQAPRLLMYGGSRRATGIPDRFSGSGSGTDFTLTIRRLEPEDSAVYYCQQYGSSPLTFGGGTKLEIKGGGGSGGGGSGGGGSQVQLVQSGSELKKPGASVKVSCKASGYTFTSYGISWVRQAPGQGLEWMGWISAYNGNTNYAQKLQGRVTMTTDTSTSTAYMELRSLRSDDTAVYYCARDPYDDYGGNSRDEEDAFDIWGQGTTVTVSS
notes: as for B1
For B9, the “percent of cells” value in assay [1] was 47.8%.

B10: anti-CD123 scFv-C24 (scFv)
scFv: DIQMTQSPSSLSASVGDRVTITCRASQSISSYLNWYQQKPGKAPKLLIHAASSLQSGVPSKFSGSGSGTDFTLTISSLQPEDFATYYCLQYKTYPYTFGPGTKVEIKGGGGSGGGGSGGGGSQVQLVQSGAEVKKPGSSVKVSCKASGGTFSSYAISWVRQAPGQGLEWMGGIIPIFGTANYAQKFQGRVTITADESTSTAYMELSSLRSEDTAVYYCARDSPSGSTNYYYYYMDVWGKGTTVTVSS
notes: as for B1
With B10, in assay [1], the “percent of cells” value worked out at 79.5%.

B11: huVH3huVL2 (antibody, human IgG1, kappa, V domains shown)
VH: QVQLQESGPGLVKPSETLSLTCTVSGFSLSDYGVHWVRQSPGKGLEWIGVIWAGGGTNYNSALKSRKTISKDNSKSQVSLKLSSVTAADTAVYYCARDKGYSYYYSMDYWGQGTTVTVSS
VL: DIQLTQSPSSLSASVGDRVTITCRASESVEYYVTSLMQWYQQKPGKAPKLLIFAASNVESGVPSRFSGSGSGTNFTLTISSVQPEDFATYFCQQSRKVPYTFGGGTKLEIKR
By EC50 is commonly meant the concentration giving half of the maximal effect. As a reminder, the Kd is the equilibrium constant for the complex coming apart. Read a high Kd as lower affinity. The koff is a measure of how fast the partners let go of each other. Usually kon stands for the second-order rate constant of association. A high value points to fast association. Turning to B11, the EC50 in assay [2] is 0.00914 µg/mL. In assay [3], this molecule came in with a Kd of 9.13 nM, a koff of 0.000782 s⁻¹ and an association rate constant (kon) of 85700 M⁻¹ s⁻¹.

B12: huVH1huVL2 (antibody, human IgG1, kappa, V domains shown)
VH: B11 VH with Q3K, L20I, I48L, K64M, S79F, L82M, V85L
VL: B11 VL
For the molecule B12, the EC50 in assay [2] was 0.0125 µg/mL. In assay [3], this molecule displayed a Kd of 6.54 nM, a koff of 0.000582 s⁻¹ and a kon of 89000 M⁻¹ s⁻¹.

B13: huVH1huVL1 (antibody, human IgG1, kappa, V domains shown)
VH: B11 VH with Q3K, L20I, I48L, K64M, S79F, L82M, V85L
VL: B11 VL with A13V, T22S, K46Q, P84E, T89M
notes: also called huVH1VL1; 9.3h11
For B13, in assay [2], the EC50 worked out at 0.0151 µg/mL. In assay [3], this molecule registered a dissociation constant (Kd) of 6.13 nM, a koff of 0.000531 s⁻¹ and a kon of 86600 M⁻¹ s⁻¹.

B14: anti-CD123 scFv-C19 (scFv)
scFv: DIRMTQSPSSLSASVGDRVTITCRASQDIRHDLGWYQQKPGKAPSLLMYATSTLQSGVPSRFSGSGSGTHFTLTISSLKPEDSATYYCLQDGDYPLTFGGGTKLEIKGGGGSGGGGSGGGGSQVQLVQSGGGVVQPGRSLRLSCAASGFTFSSYGMHWVRQAPGKGLEWVAVISYDGSNKYYADSVKGRFTISRDNSKNTLYLQMNSLRAEDTAVYYCAKDPSLIQYYYYGMDVWGQGTMVTVSS
notes: as for B1
As to B14, the “percent of cells” value in assay [1] is 65.4%.

For the origin of these results see patent US20250381223A1 (UTC THERAPEUTICS SHANGHAI, published 2025).
